Measurements reported in the supplement of paper PMC12764529.
± gives the half width of the 95% confidence interval.

Tests used:
[1] = folding stability dG unfold (combined trypsin and chymotrypsin); higher = more stable
In short: (§1)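 Digests were run with trypsin and chymotrypsin at 11 concentrations in threefold dilutions, plus a no-protease condition, on designed mini-proteins in a PA-tagged cDNA display construct. The mini-proteins were under 80 residues, had no cysteine, and were kept only when AlphaFold2 dimer inter-PAE was above 15. After sequencing, Bayesian fitting of the counts gave K50, from which unfolding free energy was derived against a sequence-predicted unfolded-state K50 and a shared folded-state K50, per protease or combined.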

[2] = folding stability dG unfold from chymotrypsin proteolysis; higher = more stable
In short: as §1

[3] = folding stability dG unfold from trypsin proteolysis; higher = more stable
In short: as §1

SAGGSAGGAKPPKTVTVKVEVTNADGETQTRTVTLTNLPKDLKPGDTVTLPETGQTARIVEITPSAGGSAGG [r6_560_TrROS_Hall]
folding stability dG unfold [1]: 3.17 ± 0.1 kcal/mol
folding stability dG unfold [2]: 3.02 ± 0.097 kcal/mol
folding stability dG unfold [3]: 3.27 ± 0.078 kcal/mol

SAGGSAGGDEIADKVKDLLRKHGWPVKEVEVTVMPHPPGRVYVMIEITMEHPGKKWTMEIMVEVSAGGSAGG [r6_533_TrROS]
folding stability dG unfold [1]: 4.66 ± 0.13 kcal/mol
folding stability dG unfold [2]: 4.79 ± 0.054 kcal/mol
folding stability dG unfold [3]: 3.15 ± 0.14 kcal/mol

SAGGSAGGDESSTPPVTTTSTTPLPDGSTVTVTSTTTYPDSTTTTTKTYSNGSTTTSTTTTPGSSAGGSAGG [r6_910_JUSTAS]
folding stability dG unfold [1]: -0.285 ± 0.13 kcal/mol
folding stability dG unfold [2]: -0.803 ± 0.35 kcal/mol
folding stability dG unfold [3]: -0.0832 ± 0.051 kcal/mol

SAGGSAGGDGLELKLTFTIPVTARSPLGGSYPVYLRLTLTYRLDDPRWELDLYALDPNGNWYPVSAGGSAGG [r6_393_TrMRF]
folding stability dG unfold [1]: 4.84 ± 0.1 kcal/mol
folding stability dG unfold [2]: 5.12 ± 0.092 kcal/mol
folding stability dG unfold [3]: 3.66 ± 0.18 kcal/mol

SAGGSAGGDKKGKPKPQWVTIMFKVPDDDLPPEEIAKEFPGVKIERSPGMYMITVPVNGKWIPFSAGGSAGG [r6_739_TrROS]
folding stability dG unfold [1]: 1.13 ± 0.093 kcal/mol
folding stability dG unfold [2]: 1.25 ± 0.14 kcal/mol
folding stability dG unfold [3]: 1.02 ± 0.039 kcal/mol

SAGGSAGGDNWYHITIFRMKIKEVEPRKDPDGEKEPQFNFKIKEVVTIPIPPNDPEKLKDALGASAGGSAGG [r6_738_TrROS]
folding stability dG unfold [1]: 1.37 ± 0.12 kcal/mol
folding stability dG unfold [2]: 1.84 ± 0.13 kcal/mol
folding stability dG unfold [3]: 0.745 ± 0.079 kcal/mol

SAGGSAGGDPPNVKIEPEIEPRRDPDGKPYVKIPYTIELPDGRPIQIDMWIDPKNGNQGPHIHISAGGSAGG [r6_298_TrROS]
folding stability dG unfold [1]: 0.64 ± 0.54 kcal/mol
folding stability dG unfold [2]: 0.486 ± 0.31 kcal/mol
folding stability dG unfold [3]: 0.817 ± 0.24 kcal/mol

SAGGSAGGDVVIIPEPSEEDKMIFTIVADGEEAPVVLTVEADNLADVVDFLKEHGLAAGHPDDGSAGGSAGG [r6_40_TrMRF]
folding stability dG unfold [1]: 0.679 ± 0.11 kcal/mol
folding stability dG unfold [2]: 0.637 ± 0.052 kcal/mol
folding stability dG unfold [3]: 0.713 ± 0.065 kcal/mol

SAGGSAGGDYERDPNNGKMKMKPKVEPPPPPKIIQIQIPFPEEADDFMNELQDNGYPIYLSPGGSAGGSAGG [r6_872_TrROS]
folding stability dG unfold [1]: 0.745 ± 0.3 kcal/mol
folding stability dG unfold [2]: 0.179 ± 0.14 kcal/mol
folding stability dG unfold [3]: 1.29 ± 0.18 kcal/mol

SAGGSAGGEDRLLLRVEVIVGGVPFEPVLEVDHPELRELLEEGRVLVVELPGGAVGRLYAEPLASAGGSAGG [r6_478_TrMRF]
folding stability dG unfold [1]: 0.811 ± 0.1 kcal/mol
folding stability dG unfold [2]: 0.704 ± 0.11 kcal/mol
folding stability dG unfold [3]: 0.7 ± 0.049 kcal/mol

SAGGSAGGEEAPPPPVTVTVTIEVEENEDGTLTVRIEVRDEATGETRTITVTMTLEELEELAKASAGGSAGG [r6_995_TrROS_Hall]
folding stability dG unfold [1]: 2.78 ± 0.22 kcal/mol
folding stability dG unfold [2]: 2.56 ± 0.13 kcal/mol
folding stability dG unfold [3]: 2.78 ± 0.11 kcal/mol

SAGGSAGGEEIAKKLGIEKAEIVEVKDNKITLKVKLKNGEELKIELYIDKKTKEIKIVKIEKVPSAGGSAGG [r6_526_TrROS_Hall]
folding stability dG unfold [1]: 2.88 ± 0.23 kcal/mol
folding stability dG unfold [2]: 3.11 ± 0.075 kcal/mol
folding stability dG unfold [3]: 2.37 ± 0.079 kcal/mol

SAGGSAGGEERVRLPITLEVPVPLAPVLLVSPDGSERLVPLPSVTLRITLELELTKEEWEKLLSSAGGSAGG [r6_119_TrMRF]
folding stability dG unfold [1]: 3.16 ± 0.15 kcal/mol
folding stability dG unfold [2]: 3.36 ± 0.13 kcal/mol
folding stability dG unfold [3]: 3.06 ± 0.2 kcal/mol

SAGGSAGGEIEILPGAKIVRVERRKDGSLLIVVEVDGKLYLFRFKDGKVEVIELPEGASLEELLSAGGSAGG [r6_680_TrROS_Hall]
folding stability dG unfold [1]: 4.92 ± 0.087 kcal/mol
folding stability dG unfold [2]: 4.99 ± 0.086 kcal/mol
folding stability dG unfold [3]: 4.23 ± 0.14 kcal/mol

SAGGSAGGEISPEDIESVETETRTLPNGLKITRTRVRVKKTNQWFELVRIEPLPAEELSEEELKSAGGSAGG [r6_757_TrROS_Hall]
folding stability dG unfold [1]: 1.59 ± 0.13 kcal/mol
folding stability dG unfold [2]: 1.78 ± 0.062 kcal/mol
folding stability dG unfold [3]: 1.37 ± 0.053 kcal/mol

SAGGSAGGEIVITLPNVKSKEEAKKAAEKLIEELKKKGIKDKTIKVTVIDEKTGKEYTFTIKLKSAGGSAGG [r6_237_TrROS_Hall]
folding stability dG unfold [1]: 4.14 ± 0.3 kcal/mol
folding stability dG unfold [2]: 4.38 ± 0.16 kcal/mol
folding stability dG unfold [3]: 3.81 ± 0.15 kcal/mol

SAGGSAGGEKVEKKEVKVELKIVIVVSEELREMSEEELEELLKELAAKLPGVKEVKIEILPLPESAGGSAGG [r6_710_TrROS_Hall]
folding stability dG unfold [1]: 1.16 ± 0.13 kcal/mol
folding stability dG unfold [2]: 1.34 ± 0.13 kcal/mol
folding stability dG unfold [3]: 1.04 ± 0.13 kcal/mol

SAGGSAGGELEELPGLKVVAVFELPGNRRLVLFEAEGGRYLLLVEGEGTRLVPVPEDVSLEELASAGGSAGG [r6_680_TrMRF]
folding stability dG unfold [1]: 3.179 ± 0.03 kcal/mol
folding stability dG unfold [2]: 3.394 ± 0.031 kcal/mol
folding stability dG unfold [3]: 2.73 ± 0.043 kcal/mol
